Consider one molecule from US20260008817A1, “CYCLIC PEPTIDE OR SALT THEREOF, AND USES THEREOF” (FUJIFILM Corporation, priority 2023, published 2026).

Positions of bridges follow the written chain, without caps; N, C: chain ends. No end group written: not given here. COCH2 = acetyl group that carries the bridge A value given as a limit tells only on which side of the number the result lay.

Test [1] has as its target T1, FGFR1 Protein, Human, Recombinant (His Tag) (Sino Biological, 10616-H08H) (human, UniProt P11362-7 22-374).
T1 construct: bought; flowed at 1 umol/L over immobilized peptide
T1 sequence (looked up): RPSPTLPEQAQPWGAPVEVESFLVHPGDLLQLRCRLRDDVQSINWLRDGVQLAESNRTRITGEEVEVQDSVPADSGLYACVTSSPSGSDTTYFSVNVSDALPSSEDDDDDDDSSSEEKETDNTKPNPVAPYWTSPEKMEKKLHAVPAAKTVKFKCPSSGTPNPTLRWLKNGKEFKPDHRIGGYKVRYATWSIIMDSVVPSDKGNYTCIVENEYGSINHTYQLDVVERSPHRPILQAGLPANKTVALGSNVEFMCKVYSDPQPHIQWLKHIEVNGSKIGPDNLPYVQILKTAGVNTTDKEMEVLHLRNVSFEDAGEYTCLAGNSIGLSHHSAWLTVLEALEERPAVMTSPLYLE
Briefly: SPR grade, FGFR 1 umol/L over immobilized peptide. As for the experimental part:
(§1) A CM5 sensor chip (Cytiva, 29149603) was set in Biacore-T200 (manufactured by Cytiva) which is a surface plasmon resonance device, and an HBS-EP buffer (Cytiva, BR100826) was added as a running buffer at a flow rate of 10 μL/min to equilibrate the flow channel. Next, 70 μL of a mixed aqueous solution of 0.2 mol/L 1-(3-dimethylaminopropyl)-3-ethylcarbodiimide (EDC) and 0.05 mol/L N-hydroxysuccinimide (NHS) was added to activate the sensor chip. Then, a cyclic peptide prepared to 2 mg/mL in HBS-EP buffer was added thereto to perform immobilization at about 200 RU. Thereafter, the blocking treatment was performed with an ethanolamine solution. In addition, in another flow channel of the same sensor chip, blocking treatment was performed immediately after activation without […].
(§2) After various FGFRs (FGFR1 Protein, Human, Recombinant (His Tag) (Sino Biological, 10616-H08H), FGFR3 Protein, Human, Recombinant (ECD, His Tag) (Sino Biological, 16044-H08H), FGFR4 Protein, Human, Recombinant (His Tag) (Sino Biological, 10538-H08H)) diluted with HBS-EP to 1 μmol/L at 25° C. was added to each flow channel of the cyclic peptide-immobilized sensor chip prepared above, for 10 minutes, HBS-EP was allowed to flow as a running buffer for 30 minutes, and the binding of various FGFRs to the cyclic peptide was measured. […] The binding amount of the cyclic peptide was evaluated from the difference between the measured value of Biacore-T200 in the flow channel in which the cyclic peptide was immobilized and the measured value of Biacore-T200 in the flow channel in which the cyclic peptide was not immobilized, in a case where 1 μmol/L FGFR was allowed to flow.
(§3) The binding amount of FGFR evaluated above was normalized to the binding amount of FGFR molecules per one molecule of the cyclic peptide using the molecular weights of the cyclic peptide and FGFR, and the binding affinity to FGFR was evaluated according to the following evaluation criteria.

The target of test [2] is T2, FGFR4 Protein, Human, Recombinant (His Tag) (Sino Biological, 10538-H08H) (human, UniProt P22455 22-369).
T2 construct: bought; flowed at 1 umol/L over immobilized peptide
T2 sequence (looked up): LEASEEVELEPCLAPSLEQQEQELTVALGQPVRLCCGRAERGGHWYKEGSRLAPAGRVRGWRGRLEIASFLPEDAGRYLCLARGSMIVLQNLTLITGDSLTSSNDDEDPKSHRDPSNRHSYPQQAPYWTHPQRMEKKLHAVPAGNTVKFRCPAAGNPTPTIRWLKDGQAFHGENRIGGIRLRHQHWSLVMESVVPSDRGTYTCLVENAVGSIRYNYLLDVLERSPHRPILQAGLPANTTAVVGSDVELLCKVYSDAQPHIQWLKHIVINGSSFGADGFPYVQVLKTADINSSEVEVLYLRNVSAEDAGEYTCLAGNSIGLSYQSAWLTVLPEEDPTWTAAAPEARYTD
Briefly: SPR grade, FGFR 1 umol/L over immobilized peptide. As for the experimental part: as §1, §2, §3

For test [3], the target named is T3, FGFR3 Protein, Human, Recombinant (ECD, His Tag) (Sino Biological, 16044-H08H) (human, UniProt P22607 23-375).
T3 construct: extracellular domain; bought; flowed at 1 umol/L over immobilized peptide
T3 sequence (looked up): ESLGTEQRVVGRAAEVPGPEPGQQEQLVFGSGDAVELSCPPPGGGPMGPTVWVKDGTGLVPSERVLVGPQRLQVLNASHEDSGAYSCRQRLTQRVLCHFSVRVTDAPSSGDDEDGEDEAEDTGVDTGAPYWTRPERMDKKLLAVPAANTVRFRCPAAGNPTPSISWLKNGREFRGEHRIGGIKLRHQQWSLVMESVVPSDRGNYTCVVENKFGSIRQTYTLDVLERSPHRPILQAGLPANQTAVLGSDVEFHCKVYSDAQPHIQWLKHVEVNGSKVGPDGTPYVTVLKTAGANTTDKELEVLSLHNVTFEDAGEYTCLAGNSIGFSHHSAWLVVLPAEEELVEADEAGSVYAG
Put plainly: SPR grade, FGFR 1 umol/L over immobilized peptide. As for the experimental part: as §1, §2, §3

Test [4] has as its target Recombinant Human FGFR1 alpha (IIIc) Fc Chimera Protein, CF (R&D systems, 658-FR-050) (human) (UniProt P11362). Put plainly: SPR grade, peptide 10 nmol/L over FGFR1-Fc. The note with it: scale: moleculesofcyclicpeptide/onemoleculeoffgfr.

ACVWTFDRHAQEISQALHK(COCH2)VKKK (thioether 2-19, chemically synthesized) [cyclic peptide SEQ ID NO: 335]: the “binding amount (SPR, molecules of FGFR per one molecule of cyclic peptide, at 1 umol/L FGFR)” value in test [1] was ≥ 0.05 moleculesoffgfr/onemoleculeofthecyclicpeptide; in test [2], ≥ 0.05 moleculesoffgfr/onemoleculeofthecyclicpeptide; in test [3], 0.01 to 0.05 moleculesoffgfr/onemoleculeofthecyclicpeptide. Besides, the binding amount (SPR, molecules of cyclic peptide bound per one molecule of FGFR at 10 nmol/L peptide) in test [4] is more than 0.7.
